Source: the supplement of paper PMC6757056
± gives the standard deviation of the averaged measurements.

B1: library; a variant is named by its letters at N, in order (parent)
chain: GCUGUCACCGGUGUAUUACCCUAGUGGUCGACCGGUCUGAUGAGUCUNNNNNNAGACGAAACAGC

Assays:
hypoxanthine [1] = variants of: B1; assay: FACS-Seq fitted mean relative fluorescence mCherry/BFP without ligand (log10 relative fluorescence); ligand: hypoxanthine (xanthine aptamer); higher = higher reporter protein expression; details: HEK293T, ligand present: no
In short: (§1)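 With or without ligand for 48 h, enriched HEK293T libraries carrying a lentiviral ribozyme-switch mCherry reporter and EF1α-BFP were sorted into 6 mCherry/BFP bins. Bin genomic DNA was amplified by PCR, barcoded and sequenced on MiSeq. Fluorescence was taken from normal fits to the resulting bin counts. Each fitted mean of log10(mCherry/BFP) was scaled to five spiked-in control ribozymes.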

hypoxanthine [2] = variants of: B1; assay: normalized RNA/DNA level with ligand (relative to sTRSVctl = 100) (log10 (% of sTRSVctl)); ligand: hypoxanthine (xanthine aptamer); higher = less ribozyme self-cleavage, higher mRNA level; details: ligand concentration (+) RNA-Seq: 5 mM, HEK293T, reporter: mCherry (pCS4076), ligand present: yes
Description: (§2)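 Hammerhead (sTRSV) ribozyme switch libraries with a ligand aptamer grafted on stem I and a randomized N4-6 loop II, cloned into the 3' UTR of mCherry and transiently transfected into HEK293T cells; RNA-Seq 72 h post transfection with ligand added 1 h before transfection; RNA read count / plasmid DNA read count normalized to the non-cleaving sTRSVctl (x100), log10; sequences with >100 DNA reads. FACS-Seq: lentiviral library sorted into 6 bins after 48 h ligand, log-normal fit mean of mCherry/BFP scaled to controls. Printed sequences are partial switch sequences.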

hypoxanthine [3] = variants of: B1; assay: normalized RNA/DNA level without ligand (relative to sTRSVctl = 100) (log10 (% of sTRSVctl)); ligand: hypoxanthine (xanthine aptamer); higher = less ribozyme self-cleavage, higher mRNA level; details: HEK293T, reporter: mCherry (pCS4076), ligand present: no
Description: as §2

hypoxanthine [4] = variants of: B1; assay: FACS-Seq fitted mean relative fluorescence mCherry/BFP with ligand (log10 relative fluorescence); ligand: hypoxanthine (xanthine aptamer); ligand concentration (+) FACS-Seq: 5 mM; higher = higher reporter protein expression; details: HEK293T, ligand present: yes
In short: as §1

| Variant | FACS-Seq fitted mean (log10) (hypoxanthine [1]) | normalized RNA/DNA level with ligand (log10) (hypoxanthine [2]) | normalized RNA/DNA level without ligand (log10) (hypoxanthine [3]) | FACS-Seq fitted mean (log10) (hypoxanthine [4]) |
| --- | --- | --- | --- | --- |
| GCUGUCACCGGUGUAUUACCCUAGUGGUCGACCGGUCUGAUGAGUCUGACACCAGACGAAACAGC | 0.458 ± 0.072 | 1.92 ± 0.022 | 1.8641 ± 0.00014 | 0.365 ± 0.049 |
| GCUGUCACCGGUGUAUUACCCUAGUGGUCGACCGGUCUGAUGAGUCUGACACGAGACGAAACAGC | 0.359 ± 0.011 | 1.9 ± 0.045 | 1.51 ± 0.018 | 0.695 ± 0.12 |
| GCUGUCACCGGUGUAUUACCCUAGUGGUCGACCGGUCUGAUGAGUCUUACACUAGACGAAACAGC | -0.295 ± 0.069 | 1.911 ± 0.006 | 1.9 ± 0.0044 | -0.34 ± 0.0052 |
| GCUGUCACCGGUGUAUUACCCUAGUGGUCGACCGGUCUGAUGAGUCUUACAGAAGACGAAACAGC | 0.0904 ± 0.019 | 1.908 ± 0.018 | 1.54 ± 0.02 | 0.383 ± 0.04 |
| GCUGUCACCGGUGUAUUACCCUAGUGGUCGACCGGUCUGAUGAGUCUAACAAGAGACGAAACAGC | 0.124 ± 0.013 | 1.85 ± 0.051 | 1.41 ± 0.098 | 0.462 ± 0.033 |
| GCUGUCACCGGUGUAUUACCCUAGUGGUCGACCGGUCUGAUGAGUCUAACAAUAGACGAAACAGC | 0.434 ± 0.044 | 1.89 ± 0.023 | 1.74 ± 0.042 | 0.249 ± 0.16 |
| GCUGUCACCGGUGUAUUACCCUAGUGGUCGACCGGUCUGAUGAGUCUGACAAAAGACGAAACAGC | 0.0314 ± 0.035 | 1.91 ± 0.058 | 1.774 ± 0.011 | 0.0426 ± 0.012 |
| GCUGUCACCGGUGUAUUACCCUAGUGGUCGACCGGUCUGAUGAGUCUGACAGCAGACGAAACAGC | 0.379 ± 0.028 | 1.965 ± 0.007 | 1.74 ± 0.084 | 0.554 ± 0.047 |
| GCUGUCACCGGUGUAUUACCCUAGUGGUCGACCGGUCUGAUGAGUCUGACAGAAGACGAAACAGC | 0.4408 ± 0.00062 | 1.91 ± 0.038 | 1.65 ± 0.035 | 0.594 ± 0.088 |
| GCUGUCACCGGUGUAUUACCCUAGUGGUCGACCGGUCUGAUGAGUCUUACAAUAGACGAAACAGC | 0.702 ± 0.073 | 1.9 ± 0.039 | 1.819 ± 0.0071 | 0.7079 ± 0.0057 |
| GCUGUCACCGGUGUAUUACCCUAGUGGUCGACCGGUCUGAUGAGUCUUACAAGAGACGAAACAGC | 0.335 ± 0.0078 | 1.928 ± 0.011 | 1.58 ± 0.018 | 0.444 ± 0.047 |
| GCUGUCACCGGUGUAUUACCCUAGUGGUCGACCGGUCUGAUGAGUCUAAAUUUAGACGAAACAGC | 0.596 ± 0.082 | 1.95 ± 0.043 | 1.9 ± 0.034 | 0.577 ± 0.029 |
| GCUGUCACCGGUGUAUUACCCUAGUGGUCGACCGGUCUGAUGAGUCUAAAUUGAGACGAAACAGC | 0.0713 ± 0.0046 | 1.88 ± 0.035 | 1.54 ± 0.049 | 0.431 ± 0.0093 |
| GCUGUCACCGGUGUAUUACCCUAGUGGUCGACCGGUCUGAUGAGUCUAACACGAGACGAAACAGC | 0.0502 ± 0.00077 | 1.85 ± 0.046 | 1.4 ± 0.045 | 0.412 ± 0.037 |
| GCUGUCACCGGUGUAUUACCCUAGUGGUCGACCGGUCUGAUGAGUCUAACACAAGACGAAACAGC | 0.00339 ± 0.015 | 1.9 ± 0.055 | 1.83 ± 0.023 | -0.0536 ± 0.037 |
| GCUGUCACCGGUGUAUUACCCUAGUGGUCGACCGGUCUGAUGAGUCUAACACCAGACGAAACAGC | 0.754 ± 0.017 | 1.9322 ± 0.00016 | 1.9 ± 0.02 | 0.806 ± 0.073 |
| GCUGUCACCGGUGUAUUACCCUAGUGGUCGACCGGUCUGAUGAGUCUGAAUUGAGACGAAACAGC | 0.0724 ± 0.04 | 1.81 ± 0.032 | 1.4 ± 0.076 | 0.434 ± 0.011 |
| GCUGUCACCGGUGUAUUACCCUAGUGGUCGACCGGUCUGAUGAGUCUUAAUUUAGACGAAACAGC | -0.253 ± 0.046 | 1.98 ± 0.034 | 1.892 ± 0.01 | -0.129 ± 0.063 |
| GCUGUCACCGGUGUAUUACCCUAGUGGUCGACCGGUCUGAUGAGUCUCACACUAGACGAAACAGC | 0.146 ± 0.034 | 1.953 ± 0.0082 | 1.87 ± 0.036 | 0.266 ± 0.0029 |
| GCUGUCACCGGUGUAUUACCCUAGUGGUCGACCGGUCUGAUGAGUCUCAAUUUAGACGAAACAGC | -0.039 ± 0.03 | 1.932 ± 0.015 | 1.83 ± 0.034 | 0.406 ± 0.03 |
| GCUGUCACCGGUGUAUUACCCUAGUGGUCGACCGGUCUGAUGAGUCUAACAGAAGACGAAACAGC | 0.273 ± 0.058 | 1.907 ± 0.0091 | 1.642 ± 0.0026 | 0.322 ± 0.091 |
